Values of other authors as cited in publication PMC12634839.

Target: FAM19A5 (Homo sapiens) (UniProt Q7Z5A7)
Assay: SPR

Chain of UniProt Q7Z5A7 (Q7Z5A7 44-132): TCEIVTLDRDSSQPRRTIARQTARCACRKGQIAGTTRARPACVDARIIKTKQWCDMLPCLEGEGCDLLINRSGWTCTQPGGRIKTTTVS

- Kd: 0.032 nM
Substance: LRRC4B 453-576 (from UniProt Q9NT99)
